Test results reported in PMC5373594.

System: T1, His6-WblI (Streptomyces lividans TK24), ORF:202723bd
T1 sequence: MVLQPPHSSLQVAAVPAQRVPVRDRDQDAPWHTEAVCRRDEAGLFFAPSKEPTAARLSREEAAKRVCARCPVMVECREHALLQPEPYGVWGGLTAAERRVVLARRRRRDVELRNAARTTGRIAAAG
Test: EMSA
Details: 10 mM Tris-HCl pH 7.5, 50 mM KCl, 1 mM DTT, 20 µl, room temperature 15 min, 50 pmol probe, 5% native PAGE in 45 mM Tris-HCl pH 8.3, 45 mM boric acid

Question: How did the binding turn out when “AGCCAGTGGCGATAAGGTTCCGTCCGGTCCGGGGCCGTCCTCGGGCAGTAACGCCGACGGCGGGGCCGTGGCCCTGTCCGGCTCGTCGGCTTCAACGGAACTCATGGCGTCCCCCGGGTCCTCGACTATTGGTCCACGAACGACCACCGTTCTACAATGGAACGGTGGTCGCGTCAAGAAACGGTGGCCCGTTCATGCCATACGATGAGGAGCACGTGTCGCTTATCGCCACTGGCT (double strand) [actII-1/actII-2 intergenic region]” was run?
Answer: binds
